This passage reports binding result and Kd results from article PMC5771497.

By Kd is commonly meant a measure of binding affinity in units of concentration. Higher therefore signals a looser complex.

Data set [1] addresses T1, PRC2 5-mer (EZH2-EED-SUZ12-RBBP4-AEBP2) (Homo sapiens, UniProt Q15910-2;O75530;Q15022;Q09028;Q6ZN18 1-751;1-441;1-739;1-425;1-517). The data set can be described thus: competition.
Data set [2] has as its target T1, PRC2 5-mer (EZH2-EED-SUZ12-RBBP4-AEBP2). The data set can be described thus: fluorescence polarization. Background: Polarisation of emitted light reports the rotation of a fluorescent probe.
For data set [3] the target is unchanged. Nature of the data set: EMSA.
Data set [4] shares this target. The data set can be described thus: competition. The source holds these as a separate data set.

B1: Poly(A)40 RNA (ssRNA)
RNA: AAAAAAAAAAAAAAAAAAAAAAAAAAAAAAAAAAAAAAAA
For B1, the binding result in data set [1] is “no binding”.

B2: (CG)30 dsDNA (dsDNA)
DNA 1: CGCGCGCGCGCGCGCGCGCGCGCGCGCGCGCGCGCGCGCGCGCGCGCGCGCGCGCGCGCG
DNA 2: B2 DNA 1
As to B2, in data set [2], the binding result is given as “binds”.

B3: (mCpG)24 dsDNA (dsDNA)
DNA 1: CGCGCGCGCGCGCGCGCGCGCGCGCGCGCGCGCGCGCGCGCGCGCGCG
DNA 2: B3 DNA 1
modifications: 5-methyl-C at CpG
B3 gave a Kd in data set [3] of 11.3 ± 6.2 nM.

B4: (GGAA)10 RNA (structured_RNA)
RNA: GGAAGGAAGGAAGGAAGGAAGGAAGGAAGGAAGGAAGGAA
As for B4, the binding result in data set [4] is reported as “binds”.
